Substitutions are numbered along the chain they refer to.

The source of these data is article PMC11189301, “Structure of the human outer kinetochore KMN network complex” (Nature Structural & Molecular Biology, 2024).

For one assay, the target named is T1, MIS12C (WT) (Homo sapiens, UniProt Q6P1K2+Q96IY1+Q9H081+Q9H410).
T1 construct: TEV-cleavable double Strep II (DS) tag (C); made in house; host or cells: High-5 insect cells (baculovirus)
As to the kind of experiment: Isothermal titration calorimetry (ITC), peptide titrated into wild-type MIS12C. Format: binding. The settings on record: 20 °C, pH 7.5, wild-type MIS12C.

The target of another assay is T2, MIS12C^Dsn1ΔN (Homo sapiens, UniProt Q6P1K2+Q96IY1+Q9H081+Q9H410, DEL6-113).
T2 construct: all proteins, apart from Knl1, were full length; TEV-cleavable double Strep II (DS) tag (C); made in house; host or cells: High-5 insect cells (baculovirus; Nsl1-Dsn1 virus plus Mis12-Pmf1 virus)
As to the kind of experiment: ITC, peptide titrated into MIS12C with deleted Dsn1^N (residues 6–113). The class given is binding. The settings on record: ITC Kd ratio, MIS12C^Dsn1ΔN vs MIS12C.

The next assay deals with MIS12C. The settings on record: cited from earlier work. An excerpt: We used isothermal titration calorimetry (ITC) to test this structural model by measuring the affinities of MIS12C for both a peptide modeled on CENP-C and a Dsn1^N auto-inhibitory peptide, including structure-guided interface mutants (Fig. 2g and Extended Data Fig. 4). […] Deletion of Dsn1^N (residues 6–113; MIS12C ...

In assay [1] the target is T3, MIS12 complex (Mis12, Pmf1, Dsn1, Nsl1), wild type, full length (Homo sapiens, UniProt Q9H081 1-205; Q6P1K2 1-205; Q9H410 1-356; Q96IY1 1-281).
T3 construct: Mis12, subunit of human MIS12C; Pmf1, subunit of human MIS12C; Dsn1, subunit of human MIS12C; Nsl1, subunit of human MIS12C; The DS tag on Pmf1 is TEV cleavable; a cleavage is not described; also called MIS12C (WT); wild-type MIS12C; source: High-5 insect cells (baculovirus), purified (Strep-Tactin, Resource S, Superdex 200); copies: + + +
T3 sequence (looked up) 1: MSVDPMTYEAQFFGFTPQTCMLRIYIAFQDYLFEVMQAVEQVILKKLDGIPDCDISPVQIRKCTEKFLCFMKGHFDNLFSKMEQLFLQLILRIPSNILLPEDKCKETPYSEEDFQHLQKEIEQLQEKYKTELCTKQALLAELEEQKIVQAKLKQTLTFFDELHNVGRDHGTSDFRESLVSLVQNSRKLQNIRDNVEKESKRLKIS
T3 sequence (looked up) 2: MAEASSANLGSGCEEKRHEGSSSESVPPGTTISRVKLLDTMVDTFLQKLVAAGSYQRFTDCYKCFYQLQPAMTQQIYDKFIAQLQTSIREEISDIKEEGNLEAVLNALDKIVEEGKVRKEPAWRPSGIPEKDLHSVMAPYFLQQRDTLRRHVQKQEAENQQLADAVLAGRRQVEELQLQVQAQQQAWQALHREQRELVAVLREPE
T3 sequence (looked up) 3: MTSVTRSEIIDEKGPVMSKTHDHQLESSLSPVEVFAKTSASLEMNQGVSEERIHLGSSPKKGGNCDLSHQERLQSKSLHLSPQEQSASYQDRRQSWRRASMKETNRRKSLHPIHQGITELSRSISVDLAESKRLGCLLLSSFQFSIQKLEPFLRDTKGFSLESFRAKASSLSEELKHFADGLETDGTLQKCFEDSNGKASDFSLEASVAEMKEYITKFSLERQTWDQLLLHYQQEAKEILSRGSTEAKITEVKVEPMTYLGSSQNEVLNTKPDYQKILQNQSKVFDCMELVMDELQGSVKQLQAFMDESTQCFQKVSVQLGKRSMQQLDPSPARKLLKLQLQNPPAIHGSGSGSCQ
T3 sequence (looked up) 4: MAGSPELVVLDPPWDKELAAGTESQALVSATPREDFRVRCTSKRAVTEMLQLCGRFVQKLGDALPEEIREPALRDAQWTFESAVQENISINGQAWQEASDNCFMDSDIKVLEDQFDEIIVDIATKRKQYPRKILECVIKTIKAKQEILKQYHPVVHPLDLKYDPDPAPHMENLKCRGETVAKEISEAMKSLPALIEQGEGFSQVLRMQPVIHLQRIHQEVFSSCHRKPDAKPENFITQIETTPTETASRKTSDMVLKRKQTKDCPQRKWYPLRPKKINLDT
As to the kind of experiment: ITC; peptide in the syringe titrated into the MIS12C variant in the cell; 20 °C; 20 mM HEPES pH 7.5, 100 mM NaCl, 1 mM TCEP; single-site binding model; duplicate or triplicate. To be noted: both partners purified.

For assay [2], the target named is T4, MIS12 complex with phosphomimetic Dsn1 S100D S109D (Homo sapiens, UniProt Q9H081 1-205; Q6P1K2 1-205; Q9H410 1-356; Q96IY1 1-281, S100D | S109D).
T4 construct: Mis12, subunit of human MIS12C; Pmf1, subunit of human MIS12C; Dsn1, subunit of human MIS12C, S100D S109D; Nsl1, subunit of human MIS12C; also called MIS12C^(Dsn1-S100D S109D); MIS12C^(Dsn1 S100D/S109D); source: High-5 insect cells (baculovirus), purified (Strep-Tactin, Resource S, Superdex 200); copies: + + +
T4 sequence (looked up) 1: T3 sequence (looked up) 1
T4 sequence (looked up) 2: T3 sequence (looked up) 2
T4 sequence (looked up) 3: T3 sequence (looked up) 3 with S100D, S109D
T4 sequence (looked up) 4: T3 sequence (looked up) 4
The assay is described as above. The settings on record: both partners purified.

For assay [3], the target named is T5, MIS12 complex with Dsn1 residues 6–113 deleted (Homo sapiens, UniProt Q9H081 1-205; Q6P1K2 1-205; Q9H410 1-356; Q96IY1 1-281, 6–113 residues deleted).
T5 construct: Mis12, subunit of human MIS12C; Pmf1, subunit of human MIS12C; Nsl1, subunit of human MIS12C; also called MIS12C^Dsn1ΔN; MIS12C^ΔN-Dsn1; source: High-5 insect cells (baculovirus), purified (Strep-Tactin, Resource S, Superdex 200); copies: + + +
T5 sequence (looked up) 1: T3 sequence (looked up) 1
T5 sequence (looked up) 2: T3 sequence (looked up) 2
T5 sequence (looked up) 3: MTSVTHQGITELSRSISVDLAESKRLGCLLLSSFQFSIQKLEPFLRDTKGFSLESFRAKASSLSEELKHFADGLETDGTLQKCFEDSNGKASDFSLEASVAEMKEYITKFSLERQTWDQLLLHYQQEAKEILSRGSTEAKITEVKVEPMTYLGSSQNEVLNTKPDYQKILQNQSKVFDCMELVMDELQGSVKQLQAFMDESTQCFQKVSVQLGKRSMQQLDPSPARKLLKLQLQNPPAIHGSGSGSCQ
T5 sequence (looked up) 4: T3 sequence (looked up) 4
Described as above. To be noted: both partners purified.

A further assay concerns the target T6, Nsl1 (Homo sapiens, UniProt Q96IY1 1-281).
T6 construct: Nsl1, subunit of human MIS12C; Subunit within the KMN network cryo-EM sample; source: High-5 insect cells, expressed and purified as part of MIS12C
T6 sequence (looked up): T3 sequence (looked up) 4
Briefly: cryo-EM structure; NDC80C, MIS12C and KNL1C mixed 1:1:1 and run on Superose 6 in 20 mM HEPES pH 8.0, 80 mM NaCl, 1 mM MgCl2, 1 mM TCEP; about 1 mg/ml on UltrAuFoil grids; 3.0 Å (MIS12C heads 3.8 Å). The settings on record: both partners purified.

The target of a further assay is T7, Dsn1 (Homo sapiens, UniProt Q9H410 1-356).
T7 construct: Dsn1, subunit of human MIS12C; Subunit within the KMN network cryo-EM sample; residues N-terminal to Arg92 are disordered; source: High-5 insect cells, expressed and purified as part of MIS12C
T7 sequence (looked up): T3 sequence (looked up) 3
Described as above. The settings on record: both partners purified.

A further assay deals with T8, Spc25 (Homo sapiens, UniProt Q9HBM1 1-224).
T8 construct: Spc25, subunit of human NDC80C; coordinates traced D80–N224; Subunit within the KMN network cryo-EM sample; source: High-5 insect cells, expressed and purified as part of NDC80C
T8 sequence (looked up): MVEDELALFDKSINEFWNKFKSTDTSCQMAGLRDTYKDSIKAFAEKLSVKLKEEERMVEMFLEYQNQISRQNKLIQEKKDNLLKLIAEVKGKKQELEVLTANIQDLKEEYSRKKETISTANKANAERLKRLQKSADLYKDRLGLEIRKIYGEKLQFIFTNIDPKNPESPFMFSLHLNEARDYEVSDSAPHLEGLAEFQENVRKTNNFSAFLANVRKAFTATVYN
The description is as above. The settings on record: both partners purified.

A further assay deals with T9, Mis12 (Homo sapiens, UniProt Q9H081 1-205).
T9 construct: Mis12, subunit of human MIS12C; Subunit within the KMN network cryo-EM sample; source: High-5 insect cells, expressed and purified as part of MIS12C
T9 sequence (looked up): T3 sequence (looked up) 1
Described as above. The settings on record: both partners purified.

In another assay the target is T10, Knl1 residues 1870–2342 (human, UniProt Q8NG31 1870-2342).
T10 construct: Knl1, human, 2,342-residue protein, residues 1870-2342; coordinates traced R2097–H2342; Subunit within the KMN network cryo-EM sample; also called extended version of the Knl1 C terminus; source: High-5 insect cells, expressed and purified as part of KNL1C
T10 sequence (looked up): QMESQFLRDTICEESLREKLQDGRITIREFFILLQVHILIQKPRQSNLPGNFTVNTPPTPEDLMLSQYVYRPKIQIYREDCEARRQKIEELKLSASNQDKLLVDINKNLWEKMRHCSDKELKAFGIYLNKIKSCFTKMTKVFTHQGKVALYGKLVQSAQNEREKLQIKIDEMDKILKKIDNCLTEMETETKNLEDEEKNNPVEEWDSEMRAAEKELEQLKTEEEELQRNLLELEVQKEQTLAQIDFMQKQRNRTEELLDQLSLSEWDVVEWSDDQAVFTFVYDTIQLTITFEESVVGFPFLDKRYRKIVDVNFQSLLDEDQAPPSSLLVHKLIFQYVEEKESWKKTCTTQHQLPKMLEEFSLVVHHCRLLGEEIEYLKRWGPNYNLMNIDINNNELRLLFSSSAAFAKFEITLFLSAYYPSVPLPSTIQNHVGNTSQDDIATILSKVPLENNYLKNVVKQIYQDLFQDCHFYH
The description is as above. The settings on record: both partners purified.

On to “Ac-RRQSWRRASMKETNRRKSLHPIAW-NH2 [Dsn1^92–113]”, for which the “affinity of Dsn1^92–113 for MIS12C, in words” value on MIS12C (WT) was “high-micromolar affinity”. For the same molecule, on MIS12C^Dsn1ΔN, the “enhancement of Dsn1^92–113 binding on deleting Dsn1^N, relative to MIS12C (WT)” value is on record as 44 fold.
For the molecule “residues 1–21 of CENP-C: residues 1–21 of CENP-C, prior data of ref 10”, the “increase in affinity of MIS12C for residues 1–21 of CENP-C on deleting a ten-residue segment of Dsn1 incorporating Ser100 and Ser109” value in the assay on MIS12C was 90 fold.

B1: CENP-C^2–22 peptide (peptide)
peptide: Ac-AASGLDHLKNGYRRRFCRPSRA-NH2
notes: CENP-C, human, named residues 2-22; also called N-terminal region of CENP-C (residues 2–22); source: synthetic peptide (Biosynth)
Turning to B1, the Kd in assay [1] stood at 485 nM; in [2], 20.4 nM; in assay [3], 10.2 nM.

B2: Spc24 (natural protein, Homo sapiens, UniProt Q8NBT2 1-197, looked up)
chain: MAAFRDIEEVSQGLLSLLGANRAEAQQRRLLGRHEQVVERLLETQDGAEKQLREILTMEKEVAQSLLNAKEQVHQGGVELQQLEAGLQEAGEEDTRLKASLLQLTRELEELKEIEADLERQEKEVDEDTTVTIPSAVYVAQLYHQVSKIEWDYECEPGMVKGIHHGPSVAQPIHLDSTQLSRKFISDYLWSLVDTEW
notes: Spc24, subunit of human NDC80C; coordinates traced G86–W197; Subunit within the KMN network cryo-EM sample; source: High-5 insect cells, expressed and purified as part of NDC80C
B2: the binding result with Nsl1, in the assay with Dsn1 and with Spc25 was “binds” in each case.

B3: Pmf1 (natural protein, Homo sapiens, UniProt Q6P1K2 1-205, looked up)
chain: T3 sequence (looked up) 2
notes: Pmf1, subunit of human MIS12C; Subunit within the KMN network cryo-EM sample; source: High-5 insect cells, expressed and purified as part of MIS12C
As to B3, the binding result with Mis12, with Dsn1 and with Knl1 residues 1870–2342 was “binds” in each case.
